Laboratory results as given in publication PMC2857867 (The FASEB Journal, 2010).

B1: mIL-10 (ligand)
chain: SRGQYSREDNNCTHFPVGQSHMLLELRTAFSQVKTFFQTKDQLDNILLTDSLMQDFKGYLGCQALSEMIQFYLVEVMPQAEKHGPEIKEHLNSLGEKLKTLRMRLRRCHRFLPCENKSKAVEQVKSDFNKLQDQGVYKAMNEFDIFINCIEAYMMIKMKS
B2: mIFNβ (ligand)
chain: INYKQLQLQERTNIRKCQELLEQLNGKINLTYRADFKIPMEMTEKMQKSYTAFAIQEMLQNVFLVFRNNFSSTGWNETIVVRLLDELHQQTVFLKTVLEEKQEERLTWEMSSTALHLKSYYWRVQRYLKLMKYNSYAWMVVRAEIFRNFLIIRRLTRNFQN
B3: mIFNα-A (ligand)
chain: CDLPHTYNLRNKRALKVLAQMRRLPFLSCLKDRQDFGFPLEKVDNQQIQKAQAIPVLRDLTQQTLNLFTSKASSAAWNATLLDSFCNDLHQQLNDLQTCLMQQVGVQEPPLTQEDALLAVRKYFHRITVYLREKKHSPCAWEVVRAEVWRALSSSVNLLPRLSEEKE
B4: hIL-28A (ligand)
chain: VPVARLHGALPDARGCHIAQFKSLSPQELQAFKRAKDALEESLLLKDCRCHSRLFPRTWDLRQLQVRERPMALEAELALTLKVLEATADTDPALVDVLDQPLHTLHHILSQFRACIQPQPTAGPRTRGRLHHWLYRLQEAPKKESPGCLEASVTFNLFRLLTRDLNCVASGDLCV
B5: mIL-28A (ligand)
chain: DPVPRATRLPVEAKDCHIAQFKSLSPKELQAFKKAKDAIEKRLLEKDLRCSSHLFPRAWDLKQLQVQERPKALQAEVALTLKVWENMTDSALATILGQPLHTLSHIHSQLQTCTQLQATAEPRSPSRRLSRWLHRLQEAQSKETPGCLEASVTSNLFRLLTRDLKCVANGDQCV

Target: T1, VACV strain WR IFNα/βBP B18 (vaccinia virus strain Western Reserve, UniProt P25213 20-351)
Test: SPR

Binder	binding result
B1	binds

Target: T1, VACV strain WR IFNα/βBP B18
Test: SPR
Remark: another data set of the same source

Binder	Kd [nM]	koff [s⁻¹]	kon [M⁻¹ s⁻¹]
B2	3.2	0.000333	104000
B3	0.455	0.000784	1.72e+06
B4	14.9	0.00364	245000
B5	13.4	0.0112	832000
